Patent US20230060388A1 (SHANGHAI HENLIUS BIOTECH, published 2023)

T1: his-tagged recombinant human TIGIT ECD (human, UniProt Q495A1 22-138)
T1 construct: also called h-TIGIT ECD (his-tagged); not shown: his tag
T1 sequence: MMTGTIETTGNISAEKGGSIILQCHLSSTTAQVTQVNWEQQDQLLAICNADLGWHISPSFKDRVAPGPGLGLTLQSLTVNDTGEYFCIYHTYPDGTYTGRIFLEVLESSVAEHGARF

T2: recombinant human TIGIT extracellular domain (ECD) (human, UniProt Q495A1 22-138)
T2 construct: also called h-TIGIT ECD; recombinant human TIGIT ECD
T2 sequence: T1 sequence

T3: recombinant mouse TIGIT (mouse, UniProt P86176 29-148, limits assumed)
T3 sequence (looked up): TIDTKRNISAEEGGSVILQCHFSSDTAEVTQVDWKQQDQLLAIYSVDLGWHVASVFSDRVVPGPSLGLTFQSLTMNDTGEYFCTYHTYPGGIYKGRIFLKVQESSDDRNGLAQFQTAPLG

T4: human TIGIT expressed on cells (stably transfected Jurkat cells) (human, UniProt Q495A1 22-244)
T4 construct: Also used here for TIGIT on primary T cells in the MLR; also called h-TIGIT; T cell immunoreceptor with Ig and ITIM domains
T4 sequence: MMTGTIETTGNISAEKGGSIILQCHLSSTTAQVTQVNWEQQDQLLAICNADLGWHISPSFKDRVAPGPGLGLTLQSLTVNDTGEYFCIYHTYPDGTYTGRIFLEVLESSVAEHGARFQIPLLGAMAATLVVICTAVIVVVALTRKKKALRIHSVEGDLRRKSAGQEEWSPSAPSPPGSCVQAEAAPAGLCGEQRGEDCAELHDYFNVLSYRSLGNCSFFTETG

B1: parental anti-PD1 monoclonal antibody (antibody, human IgG4 S228P, kappa, V domains shown)
VH: QVQLVESGGGLVKPGGSLRLSCAASGFTFSNYGMSWIRQAPGKGLEWVSTISGGGSNIYYADSVKGRFTISRDNAKNSLYLQMNSLRAEDTAVYYCVSYYYGIDFWGQGTSVTVSS
VL: DIQMTQSPSSLSASVGDRVTITCKASQDVTTAVAWYQQKPGKAPKLLIYWASTRHTGVPSRFSGSGSGTDFTLTISSLQPEDFATYYCQQHYTIPWTFGGGTKLEIKR
notes: Antibody from WO 2018/052818 A1; also called aPD1; parental mAb anti-PD1
B2: 2A3-Fc (bivalent 2A3 antibody) (Fc fusion)
chain: QVQLVESGGGVVQPGRSLRLSCAASGGSFSSYPMGWFRQAPGKERESVAAISSDMRFTYYADSVKGRFTISRDNSKNTLYLQMNSLRAEDTAVYYCAARDSGVGYYSRAQWYDYWGQGTLVTVSS
notes: also called parental 2A3-Fc; 2A3 clone; not shown: human IgG1 CH2 and CH3 domains

Key:
[1] = biological target: T5, human PD1 expressed on transfected Jurkat cells (human, UniProt Q15116 25-288); experiment: flow cytometry (whole cell binding) on h-PD1 transfected Jurkat cells; table under the graph, Average (n=4), SD 0.18
T5 construct: whole, on cells; also called h-PD1; Programmed cell death protein 1

[2] = biological target: T1, his-tagged recombinant human TIGIT ECD; experiment: Octet, antibody loaded on the sensor, his-tagged h-PD1 ECD injected first, his-tagged h-TIGIT ECD second
[3] = biological target: T5, human PD1 expressed on transfected …; experiment: cell-based or functional assay
[4] = biological target: T5, human PD1 expressed on transfected …; experiment: PD1 WCB: whole cell binding, flow cytometry, h-PD1 Jurkat cells; mean
Method: The binding affinities of the BsAbs to human PD1 were also determined by whole cell binding assays using human PD1 transfected Jurkat cells. Antibodies were incubated with h-PD1 transfected Jurkat cells, and binding was determined using a secondary anti-h-IgG antibody conjugated with AlexaFluor488, which was detected by flow cytometry.

[5] = biological target: T6, recombinant cynomolgus TIGIT (cynomolgus monkey); experiment: ELISA on recombinant cyno-TIGIT
T6 construct: also called cyno-TIGIT; cyno-TIGIT ECD
Method: (§1) FIGS. 8A-8C depict cross-binding activity of 2A3-Fc to human-, cyno- and mouse-TIGIT determined by ELISA assays. […] Reference Ab 2 is an anti-h-TIGIT reference antibody. Both 2A3-Fc and Reference Ab 2 bind to h-TIGIT with similar affinity. […] Both 2A3-Fc and Reference Ab 2 bind to cyno-TIGIT with similar affinity. […] Y axis represents OD450, X axis represents antibody concentrations in μg/ml.
(§2) Cross-species binding activity of 2A3-Fc to human, cynomolgus and mouse TIGIT was determined by ELISA assays, results of which are shown in FIGS. 8A-8C. 2A3-Fc bound to human, cynomolgus monkey but not mouse TIGIT.

[6] = biological target: T2, recombinant human TIGIT extracellular …; experiment: ELISA on recombinant human TIGIT ECD
Method: as §1, §2

recombinant mouse TIGIT = biological target: T3, recombinant mouse TIGIT; experiment: ELISA, recombinant mouse-TIGIT
[7] = biological target: T4, human TIGIT expressed on cells (stably …); experiment: flow cytometry on h-TIGIT transfected Jurkat cells (whole cell binding), Alexa Fluor 488 [upper panel]
[8] = biological target: T4, human TIGIT expressed on cells (stably …); experiment: cell-based or functional assay

T5 sequence (Q15116 25-288): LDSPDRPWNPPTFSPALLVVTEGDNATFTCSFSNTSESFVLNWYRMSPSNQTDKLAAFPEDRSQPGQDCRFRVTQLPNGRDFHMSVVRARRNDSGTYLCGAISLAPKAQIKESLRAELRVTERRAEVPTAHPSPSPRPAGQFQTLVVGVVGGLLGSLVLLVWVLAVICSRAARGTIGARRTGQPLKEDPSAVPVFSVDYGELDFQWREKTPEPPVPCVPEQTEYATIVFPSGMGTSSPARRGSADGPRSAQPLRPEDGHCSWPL

Row | Binder | EC50 [1] | binding result [2] | EC50 (Mean, nM), PD1 Blockade Assay [3] | EC50 [4] | EC50 (read off the curve) [5] | EC50 (read off the curve) [6] | binding result (recombinant mouse TIGIT) | EC50 (read off the curve) [7] | EC50 (read off the curve) of the NFAT luciferase reporter activity, TIGIT blockade assay [lower panel] [8]
1 | B1 | 360 pM | no binding (tested: concentrations not printed) | 0.73 nM | 600 pM |  |  |  |  | 
2 | B2 |  |  |  |  | ~0.1 µg/mL | ~0.1 µg/mL | no binding | ~500 pM | ~1000 pM
